According to article doi:10.1101/2023.10.30.564738 (bioRxiv, 2023):
Substitutions are numbered along the chain they refer to. Numbers in names are those of the source. Blank lines part the entries; values can stand above or below the binder they belong to.

Molecular target: Ndc80 complex (Ndc80-Flag:Nuf2:Spc24:Spc25) (S. cerevisiae, UniProt P40460 1-691; P33895 1-451; Q04477 1-213; P40014 1-221)
Experiment: SEC

Chain of Ndc80 complex (Ndc80-Flag:Nuf2:Spc24:Spc25) (P40460 whole entry, chain 1 of 4): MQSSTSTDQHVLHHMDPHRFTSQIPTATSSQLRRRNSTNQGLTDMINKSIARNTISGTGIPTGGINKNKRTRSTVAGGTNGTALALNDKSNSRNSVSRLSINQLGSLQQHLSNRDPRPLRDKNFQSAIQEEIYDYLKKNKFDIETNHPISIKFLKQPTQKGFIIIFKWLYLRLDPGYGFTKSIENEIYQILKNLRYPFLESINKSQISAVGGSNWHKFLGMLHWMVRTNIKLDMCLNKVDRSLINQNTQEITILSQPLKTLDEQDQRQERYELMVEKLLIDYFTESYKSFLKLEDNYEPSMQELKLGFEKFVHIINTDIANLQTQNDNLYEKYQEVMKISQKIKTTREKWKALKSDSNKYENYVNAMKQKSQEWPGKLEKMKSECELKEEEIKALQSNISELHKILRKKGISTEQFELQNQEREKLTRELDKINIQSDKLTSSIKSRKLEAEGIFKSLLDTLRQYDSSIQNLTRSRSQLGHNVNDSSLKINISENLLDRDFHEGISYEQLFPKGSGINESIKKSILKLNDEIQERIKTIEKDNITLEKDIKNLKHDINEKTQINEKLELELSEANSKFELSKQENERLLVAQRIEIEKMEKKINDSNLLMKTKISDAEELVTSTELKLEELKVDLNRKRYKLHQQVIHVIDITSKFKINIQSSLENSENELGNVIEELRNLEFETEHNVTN
Chain of Ndc80 complex (Ndc80-Flag:Nuf2:Spc24:Spc25) (P33895 whole entry, chain 2 of 4): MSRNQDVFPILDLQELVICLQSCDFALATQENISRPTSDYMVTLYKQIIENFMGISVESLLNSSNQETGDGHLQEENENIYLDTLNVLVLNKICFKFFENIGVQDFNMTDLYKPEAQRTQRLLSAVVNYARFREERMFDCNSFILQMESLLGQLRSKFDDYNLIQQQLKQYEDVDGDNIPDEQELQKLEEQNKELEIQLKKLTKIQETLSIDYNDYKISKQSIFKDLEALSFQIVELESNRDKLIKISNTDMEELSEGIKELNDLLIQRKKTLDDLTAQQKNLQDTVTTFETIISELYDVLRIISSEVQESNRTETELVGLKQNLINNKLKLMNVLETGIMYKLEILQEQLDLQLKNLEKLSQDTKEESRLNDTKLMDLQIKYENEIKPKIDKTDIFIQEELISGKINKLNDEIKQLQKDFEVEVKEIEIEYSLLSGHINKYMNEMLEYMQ
Chain of Ndc80 complex (Ndc80-Flag:Nuf2:Spc24:Spc25) (Q04477 whole entry, chain 3 of 4): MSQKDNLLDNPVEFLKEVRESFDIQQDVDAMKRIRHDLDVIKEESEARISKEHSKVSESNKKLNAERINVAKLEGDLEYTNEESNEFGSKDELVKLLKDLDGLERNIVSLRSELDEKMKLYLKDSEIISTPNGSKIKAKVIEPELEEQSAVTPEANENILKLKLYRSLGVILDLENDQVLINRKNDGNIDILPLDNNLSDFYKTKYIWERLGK
Chain of Ndc80 complex (Ndc80-Flag:Nuf2:Spc24:Spc25) (P40014 whole entry, chain 4 of 4): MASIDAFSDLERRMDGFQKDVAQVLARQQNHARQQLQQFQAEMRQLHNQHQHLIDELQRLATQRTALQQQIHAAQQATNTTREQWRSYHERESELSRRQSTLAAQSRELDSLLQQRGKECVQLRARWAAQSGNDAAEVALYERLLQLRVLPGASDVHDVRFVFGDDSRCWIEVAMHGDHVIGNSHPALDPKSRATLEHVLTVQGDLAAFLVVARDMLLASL

binding result: binds
B1: StrepII-tagged full-length Mps1 (wild type) (natural protein, S. cerevisiae, UniProt P54199 1-764, looked up)
chain: MSTNSFHDYVDLKSRTNTRQFSDDEEFTTPPKLSNFGSALLSHTEKTSASEILSSHNNDKIANRLEEMDRSSSRSHPPPSMGNLTSGHTSTSSHSTLFGRYLRNNHQTSMTTMNTSDIEINVGNSLDKSFERIRNLRQNMKEDITAKYAERRSKRFLISNRTTKLGPAKRAMTLTNIFDEDVPNSPNQPINARETVELPLEDSHQTNFKETKRNTDYDSIDFGDLNPIQYIKKHNLPTSDLPLISQIYFDKQREENRQAALRKHSSRELLYKSRSSSSSLSSNNLLANKDNSITSNNGSQPRRKVSTGSSSSKSSIEIRRALKENIDTSNNSNFNSPIHKIYKGISRNKDSDSEKREVLRNISINANHADNLLQQENKRLKRSLDDAITNENINSKNLEVFYHRPAPKPPVTKKVEIVEPAKSASLSNNRNIITVNDSQYEKIELLGRGGSSRVYKVKGSGNRVYALKRVSFDAFDDSSIDGFKGEIELLEKLKDQKRVIQLLDYEMGDGLLYLIMECGDHDLSQILNQRSGMPLDFNFVRFYTKEMLLCIKVVHDAGIVHSDLKPANFVLVKGILKIIDFGIANAVPEHTVNIYRETQIGTPNYMAPEALVAMNYTQNSENQHEGNKWKVGRPSDMWSCGCIIYQMIYGKPPYGSFQGQNRLLAIMNPDVKIPFPEHTSNNEKIPKSAIELMKACLYRNPDKRWTVDKVLSSTFLQPFMISGSIMEDLIRNAVRYGSEKPHISQDDLNDVVDTVLRKFADYKI

binding result: binds
B2: StrepII-tagged full-length Mps1^bp (R151D R152D R155D) (natural protein, S. cerevisiae, UniProt P54199 1-764, looked up)
chain: B1 chain with R151D, R152D, R155D
